The values below come from the nanobody polyreactivity screen of Harvey et al. (2022).

This data set can be described thus: yeast display, Sf9 membrane polyspecificity reagent, FACS + sequencing; frameworks hold sequencing errors. A digest of the protocol:
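After 36–48 hours of galactose induction, yeast (Saccharomyces cerevisiae BJ5465) displaying a synthetic nanobody library were stained at 4 °C for 1 hour with 10% biotinylated, detergent-solubilized Sf9 membrane reagent. Streptavidin microbeads enriched the stained cells before FACS sorting into low and high (top ~1%) gates on anti-HA and streptavidin fluorescence. Each clone's polyreactivity label reflects its gate of origin.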
Take “QVQLVESGGGLVQAGGSLRLSCAASGFTFYRYAMGWYRQAPGKERELVAAISWSGGTTYYADSVKGRFTISRDNAKNTVYLQMNSLKPEDTAVYYCNARFIARSGYKVDYDYWGQGTQVTVSS”: the “polyreactivity (PSR sort gate)” value is reported as “high polyreactivity”.

As for “QVQLQESAVLVQAGGSLRLSCPASGSISGRNVMGRYRQAQAKQREFVASITDGSSTNYADSVKGRFTISRDNAKNTVYLQMNSLNPKDTAVYYCAAYAQRAKSFGYWGRGTQVTVSS”, the “polyreactivity (PSR sort gate)” value was “low polyreactivity”.

Take “QVQLVESGGGLVQAGGSLRLSCAASGRIFDNYVMGWYRQAPGKERELVAAITWDGTSTYYADSVKGRFTISRDNAKNTVYLQMNSLKPEDTAVYYCAADFYPYSWEEVDYWGQGTQVTVSS”: the “polyreactivity (PSR sort gate)” value is reported as “low polyreactivity”.

Regarding “QVHLVESGGCLLQAGGSLRLSCAASGSIFIINAMGWYRQAPGKERELVAAINNGVNTYYADSVKVRFTISRDNAKNTVYLQKNSLKPEDTAVYYCAADPYFYYYGYDYWGQGTQVTVSS”, the “polyreactivity (PSR sort gate)” value is “low polyreactivity”.

“QVQLVESGGGLVQAGGSLRLSCAASGRTFTRYAMGWYRQAPGKERELVAAISLSSGRTYYADSVKGRFTISRDNAKNTVYLQMNSLKPEDTAVYYCAVRSYVVPGKGFGYWGQGTQVTVSS”: the “polyreactivity (PSR sort gate)” value is reported as “high polyreactivity”.

As to “QVQLVESGGGLVQAGGTLRLSCAASGSIFANYAMGWYRQAPGKERELVASISSGDSTNYADSVKGRFTISRDNAKNTVYLQMNSLKPEDTAVYYCASTFVGGIWSGYNYWGQGTQVTVSS”, the “polyreactivity (PSR sort gate)” value was “low polyreactivity”.

Take “QVQLVESGGGLVQAGGSLRLSCAASGRIFYANTMGWYRQAPGKERELVAAITGDGSTYADSVKGRFTISRDNAKNTVYLQMNSLKPEDTAVFYCAAEVDYSAFDYWGQGTQVTVSS”: the “polyreactivity (PSR sort gate)” value is “low polyreactivity”.

For “QLQLVESGGGLVQAGGRLRLSCAASGRTFYDYAMGWYRQSPGKERELVAAIDNGGSTYYADSVKGRFTISRDNAKNTVYLQKNSLKPEDTAVYYCNADGATVWSLEYCGQGTQVTVSS”, the “polyreactivity (PSR sort gate)” value is “low polyreactivity”.

On to “QVQLEDSGGGLVQAGGSLRLSCAASGFNFYYNAMGWYRKAPGKERELVAAISWSDGGTYYADSVKGRFTISRDNAKNTVYLQMNSLKPEDTAFYYCAADFRLRAYYPGYEYWGQGTQVTVSS”, for which the “polyreactivity (PSR sort gate)” value was “low polyreactivity”.

On to “QVQLVESGGGLVQAGGSLSLSCAASGSILYFNAMGWYRQAPGKERELVAAISRSGGSTYYADSVKGRFTISRDNAKNTVYIQMNSLKPEDTAVYSCAASYTVYYWGQGTQVTVTS”, for which the “polyreactivity (PSR sort gate)” value is listed as “high polyreactivity”.

As to “QVQLVESGGGLVHAGGSLRLSCPADGSTFVLNAIGWYRQAPGKERQLVAGISYGTGSTYYADSVKGRFTISRDHAKNTVYLQMNSLKPEDTAVYYCATDFDGYSIGMYYWGQGNQVTVSS”, the “polyreactivity (PSR sort gate)” value was “low polyreactivity”.

Regarding “QVQLVESGGGLVQAGGSIRFSCAASGRIFAHYAMGWYRPAPGKERELVAAISSSGTRTYYADSVKGRFTISRDNAKNTVYLQMNSLKPEDTAVFYCAKDSYHTVWGGYWGQGTQVTVSS”, the “polyreactivity (PSR sort gate)” value was “high polyreactivity”.

For the sequence “QVQLVESGGGLVQAGGSLRLSCAASGRTFYYYAMGWYRQAPGKERELVAAISWTGGNTYYADSVKGRFTISRDNAKNTVYLQMNSLKPEDTAVYYCAKQTRGYVRGPMYYWGQGTQVTVSS”, the “polyreactivity (PSR sort gate)” value is reported as “high polyreactivity”.

Turning to “QVKRVESGGGLVQAGGSLRLSCAASGSTFYDYAMGWYRPAHGKQRELVAAINGNGDSTYYADSVKGRFTISRDNAKNTVYLQMNSLKPEDTAVYYCAAYLGWGYDYWGQGTQVTVSS”, the “polyreactivity (PSR sort gate)” value was “low polyreactivity”.

On to “QVQLVESGGGLVQAGGSLRLICAASGSISYINAMGWYRQATGKERELDARIRSGDPTNYADSVKGRFTISRDNAKNTVYLQMNSLKPEDTAVYYCARRVTGTLYYTGYDYWGQGTQVTVSS”, for which the “polyreactivity (PSR sort gate)” value was “high polyreactivity”.

Consider “QVQLVESGGGIVQAGGSLRLSCAASGRICIINAMGWYRQATGKERELVAAISTSGGRTYYADSVKGRFTISRDNAKNTVYLQKNSLKPVDTAVYYCNAGRGYRYYRSVGSSPYEYWGQGTQVTVSS”, for which the “polyreactivity (PSR sort gate)” value is “high polyreactivity”.

With “QVQLVESGGGIVQAGGSLRLSCAASGITFQRNALGWYRQAPGKERELVAAISKSGGSTYYADSVKARFTISRDNAKNTVYLQMNSLKPEDTAVYDCAAPVWRYYRGKTFDFWGQGTQVTVSS”, the “polyreactivity (PSR sort gate)” value was “high polyreactivity”.

With “QVQLVESGGGLVQAGGSLRLSCAASGSIFITYDMGWYRQAPGKERELVAAISSVGRTTYADSVKGRFTISRDNAKNTVYLQMNSLKTEDTAVYYCAVVGRSSHNVRTYGYWGQGTQVTVTS”, the “polyreactivity (PSR sort gate)” value is recorded as “low polyreactivity”.

With “QVQLVESGGVLVQAGGSLRLSCAASGSTIPYNTMGWYRQAPRKERELVAAITRTSYADTVKGRFTISRDNAKNTVYLEMISLKREDTAVYYCAADKSFYYYLFGYDYWGQGTQVTVSS”, the “polyreactivity (PSR sort gate)” value is “low polyreactivity”.

“QVQLVESGGGLVQAGGSLRLTCAASGSTFYSNAMGWYRQAPGKERYLVAAITSRGDRTYYADSVKGRFTISRDNAKNTVYFQLNSLNPEDTAVYSCAAEQSWQGYAYYYWGQGTQVTVSS”: the “polyreactivity (PSR sort gate)” value was “high polyreactivity”.

As to “QVQLLESGGGLVQAGGSLRLSCAASGSIFYPYAMGWHRQAPGKERELVAAISYSGGSTYYADSVKGSFTISRDNAKNTVYLQMNSLKPEDSAVYYCAASVFRGSATYDSWGQGTHVTVSS”, the “polyreactivity (PSR sort gate)” value is “high polyreactivity”.

As for “QVQLVESGGGLVQAGGSLRLSCAASGRTFSYYAMGWYRQAPGKERELVATIRFSGGGTYYADSVKGRFTISRDNAKNTVYLQMNSLKPEDTAVYYCNADSIDPFLYDYWGQGTQVTVSS”, the “polyreactivity (PSR sort gate)” value is listed as “low polyreactivity”.

In the case of “QLQLVESGGGLVQAGGSLRLSCASSGIIFRWYTIGWSRQAPGKERELDAAITGRGGSTFYADSVKGRFTISRDNAKNTVYVQMNSLKPEDTAFYYCAAQYSYPTPYRTYEYDYWGQGTQVTVSS”, the “polyreactivity (PSR sort gate)” value was “high polyreactivity”.

Take “QVQLVESGGGLVQAGGSLRLSCAASGRISGFNAMGWYRQAPGKDRELVAAISYRGGSTSADSVKGRFTISRDNAKNTVYLQMNSLKPEDTAVYYCAADVRFYQYSDYDYWGQGTQVTVSS”: the “polyreactivity (PSR sort gate)” value was “low polyreactivity”.

“QVQLVESGGGLVQAGGSLRLSCAASGSIFAQYAMGWYRQAPGKERELVATISSVGSTNYADSVKGRFTISRDNAKNSVYLLMNSLKPEDTAVYYCNAVRSGWGYFYGLNSWGQGTQVTVSS”: the “polyreactivity (PSR sort gate)” value is “low polyreactivity”.

Regarding “QVHLVESGGGLVQAGGILRVSCAASGRIFRTYVMGWYRQAPGKERELVAAITQRGGTTYYADSVKRRFTISRDNAKNTVYLQMNSLKPEDTAVYYCATRYRYYTERDYWGLGTQVTVSS”, the “polyreactivity (PSR sort gate)” value is “high polyreactivity”.

Consider “QVQLVESGGGLVLAGGSLRLSCAASGRTFKKYAMGWYRQAPGKVRELVAAITSGGSTYYADSVKGRFTISRDNAKNTVYLQMNSLKPEDTAVYYCAAASSQHGNTYYYWGQATQVTVSS”, for which the “polyreactivity (PSR sort gate)” value is listed as “high polyreactivity”.

“QVQLVESGGGLVQAGGSLRLSCAASGRIFKVYAMGWYRQAPGKERELVAAITSRGGSTYYADSVKGRFTISRDNAKNTVYLQMNSLKPEDTAVYYCAAARGLPSNKYYYWGQGTQVTVSS”: the “polyreactivity (PSR sort gate)” value is on record as “high polyreactivity”.

On to “QVQLVESGGGLVQAGGSLRLSCAASGNIFAWYAMGWYRQAPGKERELVADISSRGGSSYYADSVKGRFTISRDTAKNTVYLQMNSLKPEDTAVYYCAAVWYWTQDYDYWGQGTQVTVSS”, for which the “polyreactivity (PSR sort gate)” value is recorded as “low polyreactivity”.

As to “QVQLVESGGGLLKEGGSLRLICAASGRIFVGYDMGWYRQEPGKERELVAAISSDGGSTYYSDSVKGRFTISRDNAKNTVYLQMNSVKPEDTAFYYCAADDFSTVEYDYWGQGTQVNVSS”, the “polyreactivity (PSR sort gate)” value was “low polyreactivity”.
